Results published in patent US20240369568A1.

How the values were obtained:
Test in all cases: SPR, release and stability method, specific binding activity
FcRn = FcRn (UniProt P55899)
[1] = biological target: BCMA (the 'Antigen' of the SPR antigen binding assay) (human) (UniProt Q02223)
FcγRIIIa = FcγRIIIa (UniProt P08637)
Sequence of FcγRIIIa (P08637 17-208 limits assumed): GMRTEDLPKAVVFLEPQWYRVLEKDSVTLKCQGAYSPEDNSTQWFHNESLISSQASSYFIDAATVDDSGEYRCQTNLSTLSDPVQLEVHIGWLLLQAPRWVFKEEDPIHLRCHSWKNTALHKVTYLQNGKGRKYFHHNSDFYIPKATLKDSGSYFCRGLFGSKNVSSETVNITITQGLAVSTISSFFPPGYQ

Sequence of FcRn (P55899 24-297 limits assumed, chain 1 of 2): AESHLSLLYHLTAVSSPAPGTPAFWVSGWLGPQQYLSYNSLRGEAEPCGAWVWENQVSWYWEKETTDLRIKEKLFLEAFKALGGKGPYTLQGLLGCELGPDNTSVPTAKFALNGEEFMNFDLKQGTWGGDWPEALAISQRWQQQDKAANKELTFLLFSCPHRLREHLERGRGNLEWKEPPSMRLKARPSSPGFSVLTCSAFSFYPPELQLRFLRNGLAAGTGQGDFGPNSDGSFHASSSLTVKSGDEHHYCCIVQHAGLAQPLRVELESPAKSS
Sequence of FcRn (P61769 21-119 limits assumed, chain 2 of 2, further chain): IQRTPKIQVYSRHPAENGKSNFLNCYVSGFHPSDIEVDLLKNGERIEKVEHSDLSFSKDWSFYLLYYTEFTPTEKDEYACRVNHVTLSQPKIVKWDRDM
Sequence of BCMA (the 'Antigen' of the SPR antigen binding assay) (human) (Q02223 1-54 limits assumed): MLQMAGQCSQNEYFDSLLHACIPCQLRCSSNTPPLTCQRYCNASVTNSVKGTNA

Control (sample of Table 11)
FcRNn Binding (%) (specific binding activity) (FcRn): 101% | Antigen Binding (%) (specific binding activity) [1]: 96% | FcyRIIIa Binding (%) (specific binding activity) (FcγRIIIa): 97%
